Laboratory results reported in US20200096514.

Tests used:
[1] = test system: PEG-PPQ5 fluorogenic nanosensor (PPQ5 peptide on PEG-8 40 kDa scaffold)
[2] = test system: LAS-Q
[3] = test system: ELA-Q

Row | Substance | in vitro cleavage (fluorescent dequenching) [1] | reversal of FRET-quenched fluorescent signal (cleavage) [2] | reversal of FRET-quenched fluorescent signal (cleavage) [3]
1 | recombinant human MMP13 | PEG-PPQ5 pre- and post-aerosolization was equally sensitive to in vitro cleavage by recombinant MMP13 | – | –
2 | recombinant mouse MMP1 | – | Both substrates resist cleavage by MMPI, MMP13, and thrombin | Both substrates resist cleavage by MMPI, MMP13, and thrombin
3 | recombinant mouse MMP13 | – | Both substrates resist cleavage by MMPI, MMP13, and thrombin | Both substrates resist cleavage by MMPI, MMP13, and thrombin
4 | recombinant mouse thrombin | – | Both substrates resist cleavage by MMPI, MMP13, and thrombin | Both substrates resist cleavage by MMPI, MMP13, and thrombin
